Test results as given in patent US12221481B2, “CD19 binding molecules and uses thereof” (Novartis AG, priority 2019, dated 2025).
Where a chain is given by its changes, count along the chain named.

T1: human CD19 (Homo sapiens, UniProt P15391)
T1 construct: expressed in transfected cells; host or cells: mouse cell line 300.19
T1 sequence (P15391 20-556): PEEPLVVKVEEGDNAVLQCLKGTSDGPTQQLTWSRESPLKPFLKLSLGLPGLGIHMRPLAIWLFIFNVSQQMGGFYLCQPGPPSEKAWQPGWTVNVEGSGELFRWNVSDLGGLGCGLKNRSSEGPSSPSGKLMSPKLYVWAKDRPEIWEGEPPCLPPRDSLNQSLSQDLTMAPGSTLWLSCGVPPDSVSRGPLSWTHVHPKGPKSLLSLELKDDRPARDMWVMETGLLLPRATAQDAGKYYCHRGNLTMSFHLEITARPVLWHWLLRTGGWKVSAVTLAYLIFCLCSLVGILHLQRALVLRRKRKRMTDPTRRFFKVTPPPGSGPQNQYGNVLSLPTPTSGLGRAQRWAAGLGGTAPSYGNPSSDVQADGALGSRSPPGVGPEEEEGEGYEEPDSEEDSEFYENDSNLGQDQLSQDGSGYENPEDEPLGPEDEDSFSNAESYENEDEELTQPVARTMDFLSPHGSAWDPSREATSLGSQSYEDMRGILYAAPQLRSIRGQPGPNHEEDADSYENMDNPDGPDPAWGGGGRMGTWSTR

T2: recombinant human CD2 (Homo sapiens, UniProt P06729)
T2 construct: transiently produced and purified from HEK293 cells along with the CD2 extracellular domain; made in house; host or cells: HEK293 / HEK293F, transient
T2 sequence (P06729 with tags, fused parts or gaps): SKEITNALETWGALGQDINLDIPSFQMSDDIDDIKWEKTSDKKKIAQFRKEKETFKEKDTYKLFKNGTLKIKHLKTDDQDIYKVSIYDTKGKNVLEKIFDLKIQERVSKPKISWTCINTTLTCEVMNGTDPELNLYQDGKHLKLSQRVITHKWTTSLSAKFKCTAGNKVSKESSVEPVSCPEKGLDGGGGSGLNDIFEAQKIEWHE

B1: NEG258: CD19 antibody; VH SEQ ID NO:13, VL SEQ ID NO:26 (antibody, V domains shown)
VH: QVQLVQSGAEVKKPGASVKVSCKASGYTFTTYWIQWVRQAPGQRLEWMGAVYPGDADTRYTQKFQGRVTLTADRSASTAYMELSSLRSEDTAVYYCGRDAGLEYYALDYWGQGTLVTVSS
VL: EIVMTQSPATLSVSPGERATLSCRASQDVGTAVAWYQQKPGQAPRLLIYWASTRHTGIPARFSGSGSGTEFTLTISSLQSEDFAVYFCQQYANFPLYTFGQGTKLEIK
B2: IgV V54C_G88C: CD58 IgV domain with V54 and G88 replaced by cysteines (stabilizing disulfide) (protein)
chain: SQQIYGVVYGNVTFHVPSNVPLKECLWKKQKDKVAELENSEFRAFSSFKNRVYLDTVSCSLTIYNLTSSDEDEYEMESPNITDTMKFFLYVLESGGGGSHHHHHHHH
B3: IgV V45C_M105C: CD58 IgV domain with V45 and M105 replaced by cysteines (stabilizing disulfide) (protein)
chain: B2 chain with V16C, C25V, C59G, M76C
B4: CD58_IgV: recombinant human CD58 IgV domain (domain 1), no added disulfide (protein)
chain: B2 chain with C25V, C59G
B5: IgV V45C_M114C: CD58 IgV domain with V45 and M114 replaced by cysteines (stabilizing disulfide) (protein)
chain: B2 chain with V16C, C25V, C59G, M85C
B6: CD3hi: anti-CD3 antibody having high affinity to CD3 (in relative terms) (antibody, V domains shown)
VH: EVQLVESGGGLVQPGGSLKLSCAASGFTFNTYAMNWVRQASGKGLEWVGRIRSKYNNYATYYADSVKDRFTISRDDSKSTLYLQMNSLKTEDTAVYYCVRHGNFGNSYVSWFAYWGQGTLVTVSS
VL: QAVVTQEPSLTVSPGGTVTLTCRSSTGAVTTSNYANWVQQKPGQAPRGLIGGTNKRAPWTPARFSGSLLGDKAALTLSGAQPEDEAEYFCALWYSNLWVFGGGTKLTVL
B7: CD3lo: anti-CD3 antibody having low affinity to CD3 (in relative terms) (antibody, V domains shown)
VH: B6 VH with L81A
VL: B6 VL
B8: CD3med: anti-CD3 antibody having medium affinity to CD3 (in relative terms) (antibody, V domains shown)
VH: B6 VH with S79N, L81A, Y114H
VL: B6 VL with R23G, T31S, D71G, F89Y
B9: CD58 Full ECD: recombinant human CD58 full extracellular domain (protein)
chain: SQQIYGVVYGNVTFHVPSNVPLKEVLWKKQKDKVAELENSEFRAFSSFKNRVYLDTVSGSLTIYNLTSSDEDEYEMESPNITDTMKFFLYVLESLPSPTLTCALTNGSIEVQCMIPEHYNSHRGLIMYSWDCPMEQCKRNSTSIYFKMENDLPQKIQCTLSNPLFNTTSSIILTTCIPSSGHSRHRGGGGSHHHHHHHH
B10: NEG218: CD19 antibody; VH SEQ ID NO:39, VL SEQ ID NO:52 (antibody, V domains shown)
VH: EVQLVQSGAEVKKPGESLKISCKASGYSFTNYWMNWVRQMPGKGLEWMGMIHPSDSEIRLNQKFQGQVTLSVDKSIGTAYMQWSSLKASDTAMYYCSRWYYLSSPMDYWGQGTTVTVSS
VL: EIVMTQSPATLSVSPGERATLSCRASQDVGTAVAWYQQKPGQAPRLLIYWASTRHTGIPARFSGSGSGTEFTLTISSLQSEDFAVYFCQQYSSYPYTFGQGTKLEIK

How the values were obtained:
cyno CD19 = test: Binding of TBMs to 300.19 cells overexpressing cyno CD19 (FACS); parameters: species or system cynomolgus
Protocol: (§1) The mouse cell line 300.19 was engineered to overexpress either human CD19 or cyno CD19. Cells were cultured in RPMI medium (Invitrogen #11875-093) with 10% FBS and 2-mercaptoethanol. Cells were harvested and resuspended in FACS buffer (PBS containing 1% FBS). 50,000 cells per well were plated in a V-bottom 96-well plate. Each cell line was incubated with serial dilutions of TBMs of Example 1A (i.e., R variants) for one hour on ice. Cells were centrifuged for 4 min at 400×g and washed with FACS buffer. This was repeated twice, and then the cells were incubated with Alexa-647 labeled anti-human Fc secondary antibody (Jackson Immuno #109-605-098) for 30 min on ice. The cells were washed twice, then resuspended in 100 μL of FACS buffer. FACS data was collected on a Beckman Coulter Cytoflex and analysis was performed using CytExpert v2.3.

human CD19 = target: T1, human CD19; test: Binding of TBMs to 300.19 cells overexpressing human CD19 (FACS); conditions: for binding to human CD19 compared with cyno CD19: 300.19 cells overexpressing human or cyno CD19
Protocol: as §1

[1] = Thermal stability of CD58 variants by differential scanning fluorimetry (DSF); assay type: physicochemical
Protocol: Disulfide stabilized variants were assessed for improved thermal stability using both differential scanning calorimetry (DSC) and differential scanning fluorimetry (DSF) using standard techniques. For DSF, 1-3 ug of each construct was add to 1× Sypro Orange (Thermo-Fisher) in 25 ul total volume in 96-well PCR plate. Using a Bio-Rad CFX96 RT-PCR system equipped with C1000 Thermal Cycler, the temperature was increased from 25° C. to 95° C. at 0.5° C./minute and the fluorescence monitored. The manufacturer-supplied software was used to determine Tm.

[2] = Thermal stability of CD58 variants by differential scanning calorimetry (DSC); assay type: physicochemical; conditions: HBS, 0.5 mg/mL
Protocol: For DSC, all samples were dialyzed into HEPES-buffered saline (HBS) and diluted to final concentration of 0.5 mg/mL. Tm and Tonset were determined using a MicroCal VP-Capillary DSC system (Malvern) by increasing temperature from 25° C. to 100° C. at 1° C./minute with a filtering period of 2 seconds and a mid-gain setting.

CD3-Fc = test: CD3 affinity measurement of anti-CD3 mAbs (Biacore T200); assay type: binding; conditions: as measured by Biacore; stated to be for identification, not absolute affinity values
Excerpt: For each trispecific construct, three plasmids were synthesized. […] It should be understood that with respect to the mentioned Biacore affinity values and relative terms in the construct names, these are used merely for identification purposes and are not intended to represent absolute affinity values. A second plasmid encoding a light chain was synthesized as a fusion comprising (in the N-terminal to C-terminal direction) (i) an anti-CD19 VL domain and (ii) a constant human kappa sequence. The proteins encoded by the first and second plasmids form the first half antibody. A third plasmid encoding the second half antibody was synthesized as a fusion comprising (in the N-terminal to C-terminal direction) (i) the IgV domain of CD58 (CD58-6) and (ii) a constant hIgG1 domain containing a T366W mutation for a knob to facilitate heterodimerization as well as silencing mutations.
Briefly, anti-hFc IgG1 was immobilized on a CM5 chip. After capturing CD3-Fc (1 μg/ml in HBS-EP+ buffer, flow rate of 50 μl/min, with a 30 second injection time) kinetic data was acquired by subsequent injections of 1:2 dilution series of the different antibodies in HBS-EP+ buffer.
Data were evaluated using the Biacore T200 evaluation software version 1.0. The raw data were double referenced, i.e. the response of the measuring flow cell was corrected for the response of the reference flow cell, and in a second step the response of a blank injection was subtracted. Finally, the sensorgrams were fitted by applying 1:1 binding model to calculate kinetic rate constants and dissociation equilibrium constants. Rmax was set at local. Data were processed individually for each run.

recombinant human CD2 = target: T2, recombinant human CD2; test: Isothermal calorimetry (ITC) of CD58 variants binding to CD2; conditions: apparent KD, CD2 titrated into 10 μM CD58 variant, HBS
Protocol: To ensure the binding affinity remained uncompromised by the additional of the stabilizing disulfide variance, isothermal calorimetry (ITC) was performed on the resulting recombinant CD58 proteins to determine their apparent KD and binding stoichiometry (n) to recombinant human CD2.
Briefly, recombinant human CD2 and recombinant human CD58 variants were dialyzed into HEPES-buffered saline (HBS). CD2 was diluted to final concentration of 100 μM, CD58 variants were diluted to 10 μM. CD2 was titrated into 10 μM of CD58 variants via multiple injections and ΔH (kcal/mole) determined using a MicroCal VP-ITC isothermal titration calorimeter (Malvern). Titrations of CD2 into HBS were used as a reference and KD and n determined from the resulting data.

Molecule | Tm by Differential Scanning Fluorimetry (DSF) [1] | Tm by Differential Scanning Calorimetry (DSC) [2] | Tmonset by Differential Scanning Calorimetry (DSC) [2] | Kd (CD3-Fc) | other results
B1 | – | – | – | – | affinity for cyno CD19, NEG258 vs NEG218 (cyno CD19): greater affinity for both human CD19 and cyno CD19; affinity for human CD19, NEG258 vs NEG218 (human CD19): greater affinity for both human CD19 and cyno CD19; binding to human CD19 compared with cyno CD19 (human CD19): bind equally to both human and cyno
B2 | 76.5 °C | 80.9 °C | 66.7 °C | – | –
B3 | 48.5 °C | 66.8 °C | 43.9 °C | – | –
B4 | 48.5 °C | 60.9 °C | 46.3 °C | – | –
B5 | 63.5 °C | 72.5 °C | 49.6 °C | – | –
B6 | – | – | – | 16 nM | –
B7 | – | – | – | 48 nM | –
B8 | – | – | – | 30 nM | –
B9 | 59.5 °C | 65.0 °C | 48.8 °C | – | Kd (recombinant human CD2): 570 nM
B10 | – | – | – | – | binding to human CD19 compared with cyno CD19 (human CD19): greater affinity for cyno CD19 than human CD19
